Data taken from patent US20050256058A1.
Numbered stars: 1 amine (or outer) side, 2 acyl side, 3 side chain; on linkers, the order of the positions; unused ones are H or OH. Square brackets hold non-standard residues; d marks the D form. * marks the point of attachment. CH═CH‑CON(CH2Ph)2 = O=C(/C=C/*)N(Cc1ccccc1)Cc1ccccc1; CH═CH‑CON(CH3)CH2CH2Ph = CN(CCc1ccccc1)C(=O)/C=C/*; AAsp = aza-Asp, O=C(N(CC(=O)[*:3])N[*:1])[*:2]; CH═CH‑CON(CH3)CH2Ph = CN(Cc1ccccc1)C(=O)/C=C/*; CH═CH‑COOCH2Ph = O=C(/C=C/*)OCc1ccccc1; Cbz = O=C(OCc1ccccc1)*

T1: Caspase-10 (UniProt Q92851)
T1 sequence (looked up): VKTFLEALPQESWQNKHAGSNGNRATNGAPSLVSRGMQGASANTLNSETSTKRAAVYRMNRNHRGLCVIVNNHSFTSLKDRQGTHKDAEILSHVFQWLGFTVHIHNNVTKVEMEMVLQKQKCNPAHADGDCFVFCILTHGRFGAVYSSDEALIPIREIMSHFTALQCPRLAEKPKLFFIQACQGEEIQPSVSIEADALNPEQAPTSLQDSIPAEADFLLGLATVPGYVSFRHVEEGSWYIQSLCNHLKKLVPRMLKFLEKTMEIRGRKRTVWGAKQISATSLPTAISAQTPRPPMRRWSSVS

T2: Caspase-6 (UniProt P55212)
T2 sequence (looked up): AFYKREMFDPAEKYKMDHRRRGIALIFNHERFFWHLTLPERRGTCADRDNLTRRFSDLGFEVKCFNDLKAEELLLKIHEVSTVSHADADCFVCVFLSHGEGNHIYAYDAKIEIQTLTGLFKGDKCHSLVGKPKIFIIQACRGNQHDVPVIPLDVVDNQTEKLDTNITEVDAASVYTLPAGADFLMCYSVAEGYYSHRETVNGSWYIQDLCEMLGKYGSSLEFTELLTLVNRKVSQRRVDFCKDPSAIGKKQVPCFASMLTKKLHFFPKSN

T3: Caspase-7 (UniProt P55210)
T3 sequence (looked up): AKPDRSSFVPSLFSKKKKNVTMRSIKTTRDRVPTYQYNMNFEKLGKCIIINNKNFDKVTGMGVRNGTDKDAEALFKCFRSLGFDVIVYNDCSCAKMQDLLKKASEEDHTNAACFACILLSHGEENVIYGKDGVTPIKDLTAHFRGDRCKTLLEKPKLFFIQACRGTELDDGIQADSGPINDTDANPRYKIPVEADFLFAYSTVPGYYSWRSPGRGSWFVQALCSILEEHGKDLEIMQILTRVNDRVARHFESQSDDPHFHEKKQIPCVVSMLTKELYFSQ

T4: Caspase-3 (UniProt P42574)
T4 sequence (looked up): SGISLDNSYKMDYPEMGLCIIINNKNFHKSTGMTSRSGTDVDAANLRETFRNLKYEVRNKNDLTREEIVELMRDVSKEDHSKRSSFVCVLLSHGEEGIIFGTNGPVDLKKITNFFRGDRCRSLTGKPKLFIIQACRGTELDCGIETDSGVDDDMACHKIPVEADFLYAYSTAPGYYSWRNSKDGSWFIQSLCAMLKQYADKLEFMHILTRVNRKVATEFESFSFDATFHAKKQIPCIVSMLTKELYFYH

T5: Caspase-2 (UniProt P42575)
T5 sequence (looked up): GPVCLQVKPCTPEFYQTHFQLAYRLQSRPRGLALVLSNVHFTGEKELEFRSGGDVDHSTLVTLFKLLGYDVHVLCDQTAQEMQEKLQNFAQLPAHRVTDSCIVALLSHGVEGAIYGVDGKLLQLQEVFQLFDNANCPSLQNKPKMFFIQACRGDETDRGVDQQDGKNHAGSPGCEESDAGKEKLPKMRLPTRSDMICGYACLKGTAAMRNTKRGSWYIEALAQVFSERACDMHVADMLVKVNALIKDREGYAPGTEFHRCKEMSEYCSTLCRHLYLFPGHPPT

B1: Cbz-Ile-Glu-Thr-AAsp-CH═CH-COOCH2Ph (peptide)
peptide: Cbz-IET[AAsp]-{CH═CH‑COOCH2Ph}
SMILES: CC[C@H](C)[C@H](NC(=O)OCc1ccccc1)C(=O)N[C@@H](CCC(=O)O)C(=O)N[C@H](C(=O)NN(CC(=O)O)C(=O)/C=C/C(=O)OCc1ccccc1)[C@@H](C)O
B2: Cbz-Ile-Glu-Thr-AAsp-CH═CH-CON(CH3)CH2Ph (peptide)
peptide: Cbz-IET[AAsp]-{CH═CH‑CON(CH3)CH2Ph}
SMILES: CC[C@H](C)[C@H](NC(=O)OCc1ccccc1)C(=O)N[C@@H](CCC(=O)O)C(=O)N[C@H](C(=O)NN(CC(=O)O)C(=O)/C=C/C(=O)N(C)Cc1ccccc1)[C@@H](C)O
B3: Cbz-Ile-Glu-Thr-AAsp-CH═CH-CON(CH3)CH2CH2Ph (peptide)
peptide: Cbz-IET[AAsp]-{CH═CH‑CON(CH3)CH2CH2Ph}
SMILES: CC[C@H](C)[C@H](NC(=O)OCc1ccccc1)C(=O)N[C@@H](CCC(=O)O)C(=O)N[C@H](C(=O)NN(CC(=O)O)C(=O)/C=C/C(=O)N(C)CCc1ccccc1)[C@@H](C)O
B4: Cbz-Ile-Glu-Thr-AAsp-CH═CH-CON(CH2Ph)2 (peptide)
peptide: Cbz-IET[AAsp]-{CH═CH‑CON(CH2Ph)2}
SMILES: CC[C@H](C)[C@H](NC(=O)OCc1ccccc1)C(=O)N[C@@H](CCC(=O)O)C(=O)N[C@H](C(=O)NN(CC(=O)O)C(=O)/C=C/C(=O)N(Cc1ccccc1)Cc1ccccc1)[C@@H](C)O

molecular target: T1, Caspase-10; assay: cell-based or functional assay

k2 [M⁻¹ s⁻¹] | Binder
15200 | B1
9210 | Cbz-IET[AAsp]-{CH═CH‑CONHPh} [Cbz-Ile-Glu-Thr-AAsp-CH═CH-CONHPh]
8500 | B2
8770 | B3
7930 | B4
8290 | Cbz-IET[AAsp]-{CH═CH‑CONHCH2CH2Ph} [Cbz-Ile-Glu-Thr-AAsp-CH═CH-CONHCH2CH2Ph]

molecular target: Caspase-8 (UniProt Q14790); assay: cell-based or functional assay
Sequence (Q14790 217-479 limits assumed): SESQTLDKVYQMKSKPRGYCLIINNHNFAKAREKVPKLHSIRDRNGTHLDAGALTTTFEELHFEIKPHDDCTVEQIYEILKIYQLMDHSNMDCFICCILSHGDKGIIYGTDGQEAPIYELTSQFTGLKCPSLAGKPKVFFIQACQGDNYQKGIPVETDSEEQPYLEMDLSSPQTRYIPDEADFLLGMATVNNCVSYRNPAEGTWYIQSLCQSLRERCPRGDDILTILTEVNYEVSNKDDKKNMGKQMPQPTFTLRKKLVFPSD

k2 [M⁻¹ s⁻¹] | Binder
148000 | B1
245000 | Cbz-IET[AAsp]-{CH═CH‑CONHPh} [Cbz-Ile-Glu-Thr-AAsp-CH═CH-CONHPh]
59700 | B2
60500 | B3
39500 | B4
71000 | Cbz-IET[AAsp]-{CH═CH‑CONHCH2CH2Ph} [Cbz-Ile-Glu-Thr-AAsp-CH═CH-CONHCH2CH2Ph]

molecular target: T2, Caspase-6; assay: cell-based or functional assay

k2 [M⁻¹ s⁻¹] | Binder
23400 | B1
99200 | Cbz-IET[AAsp]-{CH═CH‑CONHPh} [Cbz-Ile-Glu-Thr-AAsp-CH═CH-CONHPh]
45900 | B2
83900 | B4
18700 | Cbz-IET[AAsp]-{CH═CH‑CONHCH2CH2Ph} [Cbz-Ile-Glu-Thr-AAsp-CH═CH-CONHCH2CH2Ph]

molecular target: T3, Caspase-7; assay: cell-based or functional assay

k2 [M⁻¹ s⁻¹] | Binder
660 | B1
920 | Cbz-IET[AAsp]-{CH═CH‑CONHPh} [Cbz-Ile-Glu-Thr-AAsp-CH═CH-CONHPh]
390 | B2
1020 | B3
1140 | B4
440 | Cbz-IET[AAsp]-{CH═CH‑CONHCH2CH2Ph} [Cbz-Ile-Glu-Thr-AAsp-CH═CH-CONHCH2CH2Ph]

molecular target: T4, Caspase-3; assay: cell-based or functional assay

k2 [M⁻¹ s⁻¹] | Binder
2300 | B1
7030 | Cbz-IET[AAsp]-{CH═CH‑CONHPh} [Cbz-Ile-Glu-Thr-AAsp-CH═CH-CONHPh]
6000 | B2
5480 | B3
9570 | B4
4750 | Cbz-IET[AAsp]-{CH═CH‑CONHCH2CH2Ph} [Cbz-Ile-Glu-Thr-AAsp-CH═CH-CONHCH2CH2Ph]

molecular target: Caspase-9 (UniProt P55211); assay: cell-based or functional assay
Sequence (P55211 whole entry): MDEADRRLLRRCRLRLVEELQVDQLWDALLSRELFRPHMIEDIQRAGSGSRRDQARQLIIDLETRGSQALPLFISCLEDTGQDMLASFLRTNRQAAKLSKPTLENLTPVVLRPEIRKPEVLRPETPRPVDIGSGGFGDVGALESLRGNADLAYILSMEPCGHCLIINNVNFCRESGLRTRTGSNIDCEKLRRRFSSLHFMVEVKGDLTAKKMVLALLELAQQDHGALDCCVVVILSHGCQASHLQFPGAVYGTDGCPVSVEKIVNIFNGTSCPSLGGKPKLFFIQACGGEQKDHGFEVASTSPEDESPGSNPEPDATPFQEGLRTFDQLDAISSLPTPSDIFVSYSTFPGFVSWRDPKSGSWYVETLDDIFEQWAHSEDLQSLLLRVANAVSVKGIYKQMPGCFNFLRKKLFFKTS

k2 [M⁻¹ s⁻¹] | Binder
940 | Cbz-IET[AAsp]-{CH═CH‑CONHPh} [Cbz-Ile-Glu-Thr-AAsp-CH═CH-CONHPh]
845 | B2
760 | B3
1930 | B4
615 | Cbz-IET[AAsp]-{CH═CH‑CONHCH2CH2Ph} [Cbz-Ile-Glu-Thr-AAsp-CH═CH-CONHCH2CH2Ph]

molecular target: T5, Caspase-2; assay: cell-based or functional assay

k2 [M⁻¹ s⁻¹] | Binder
110 | B1
365 | Cbz-IET[AAsp]-{CH═CH‑CONHPh} [Cbz-Ile-Glu-Thr-AAsp-CH═CH-CONHPh]
95 | B2
38 | B3
76 | B4
30 | Cbz-IET[AAsp]-{CH═CH‑CONHCH2CH2Ph} [Cbz-Ile-Glu-Thr-AAsp-CH═CH-CONHCH2CH2Ph]
